For the data set, the target named is T1, His-BaeR (Acinetobacter baumannii ATCC 17978) (UniProt A0ABX6CJ55).
T1 sequence: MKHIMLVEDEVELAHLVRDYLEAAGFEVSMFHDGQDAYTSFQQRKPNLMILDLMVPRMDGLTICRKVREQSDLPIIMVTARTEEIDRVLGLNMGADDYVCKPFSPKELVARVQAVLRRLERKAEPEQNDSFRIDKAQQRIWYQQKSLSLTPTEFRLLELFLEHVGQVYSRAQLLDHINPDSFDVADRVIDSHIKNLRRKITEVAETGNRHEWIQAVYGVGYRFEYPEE
Nature of the data set: EMSA.

As for “GCCTTCACGTTTTAAATAATTTTCAATAATGTCGCCAATATCGTAGTCATCTTCTACCACAAGAATAACTTTATCTTGGCAATCAAAAGAAAAAGAATGATCAAACATAGAAAATCTGGCTATAGAAAGTGCTTCAACTCATCATACGCTAAATTATCCGTATTTCTCCACACTTACTCCACACTTTAGTGATTATCCCTACACACTCATCAAAAATAATACGAACATCAAAAACTCACTAGG (double strand) [adeA promoter region (243 bp)]”, the binding result was “no binding”. Then “TTTCTGAGCAGCAGCAGCTTGCTGTTTCTCATCGGAGCCTTTGCTACAACCAACAAGCGCGATACTTGTTGCTAATGCGCAAGCAGTAAGGGCTGGTGCCCAAAGCTTAGCCGACATCATTGTTCCACCTCGTTTAGATAAAAT (double strand) [adeI promoter region (144 bp)]”, with “no binding”.
